“Also recorded” adds a separate entry of the source.
Legend:
[1] = biological target: T1, NL-IL23R and IL12Rβ1 (IL-23 receptor) on HEK293T cells (Homo sapiens, UniProt P42701+Q5VWK5); assay: P630-TMR NanoBRET competition assay; format: binding; conditions: for Displacement of 75 nM P630-TMR (Mean): Fig. 5a
T1 construct: expressed in transfected cells; host or cells: HEK293T (ATCC CRL-3216), transient transfection
Description: (§1) Transient transfections for experiments outlined in Fig. 6 were conducted by seeding 100 μL of 2 × 10^5 cells/ml concentrated HEK293T cells into poly-D-lysine (PDL) coated white 96 well clear bottom assay microplates (Greiner) and incubating overnight. The following day transfection mixes were made up that contained a 4:1 ratio of IL23R to IL12Rβ1 constructs to a total concentration of 100 ng per well with a 0.3 μL per well of FuGENE HD transfection reagent (Promega) in OptiMEM (Gibco). These mixtures were incubated for 10 min before being added to the plate at 5 μL per well. The cells were then incubated overnight to allow expression. For all other experiments 2 mL containing 4 × 10^5 cells were seeded into 6 well plates and incubated 5 h before being transiently transfected with 100 μL per well of a transfection mix containing 2 μg of DNA and 6 μL of FuGENE HD. These cells were then incubated overnight before being re-suspended the following day and seeded into PDL coated white assay microplates at 100 μL containing 3 × 10^4 transfected cells. Cells were then incubated overnight before the experiment. Estimates of total expression levels for the different NL-constructs were made by comparing the luminescence levels achieved to that of a NanoLuciferase standard curve measured under the same conditions (Supplementary Fig. 1).
Media was removed from white 96-well microplates containing transfected cells and replaced with fluoroprobe in the presence or absence of antagonist in 50 μL Hanks Balanced Salt Solution (HBSS) with 1 mg/mL BSA (Merck). After a 1-hour incubation at 37 °C without CO2, 5 μL of HBSS containing 77 μM furimizine was added to each well (final concentration 7 μM), the plate incubated for 5-minutes and the BRET signal measured using a PheraStar FS plate reader (BMG Labtech; data acquisition software version 5.41; MARS analysis software version 3.32) with a 450 ± 30 nm and >550 nm long pass filters.
(§2) Antagonist competition data were fit with the equation:4 Y=Bmin+Bmax−Bmin/1+10^(LogXC50−[A])C Where ‘Bmax’ is the maximum BRET signal, ‘Bmin’ is the minimum BRET signal, ‘LogXC50’ is the log of the 50% inhibiting concentration of antagonist, ‘[A]’ is the concentration of antagonist and ‘C’ is the Hill slope.

[2] = biological target: T1, NL-IL23R and IL12Rβ1 (IL-23 receptor) on HEK293T cells; assay: IL23-TMR NanoBRET competition assay; format: binding; parameters: Inhibition of IL23-TMR binding (Mean): unit not given here; conditions: for Inhibition of IL23-TMR binding (Mean): 300 pM IL23-TMR
Description: Schematic created with Biorender.com. IL23R is shown in orange, IL12Rβ1 in purple, IL23p19 in blue, IL12p40 in green and the presence of a TAMRA fluorophore by a pink star. […] In b and c, data are mean ± SEM from 5 independent experiments conducted in either duplicate or triplicate. Details on absolute number of data points included for each concentration are provided in the associated Source Data file.
as §1
Media was removed from white 96-well microplates containing transfected cells and replaced with fluoroprobe in the presence or absence of antagonist in 50 μL Hanks Balanced Salt Solution (HBSS) with 1 mg/mL BSA (Merck).
as §2

T1 sequence (Q5VWK5 24-629, other chains not shown): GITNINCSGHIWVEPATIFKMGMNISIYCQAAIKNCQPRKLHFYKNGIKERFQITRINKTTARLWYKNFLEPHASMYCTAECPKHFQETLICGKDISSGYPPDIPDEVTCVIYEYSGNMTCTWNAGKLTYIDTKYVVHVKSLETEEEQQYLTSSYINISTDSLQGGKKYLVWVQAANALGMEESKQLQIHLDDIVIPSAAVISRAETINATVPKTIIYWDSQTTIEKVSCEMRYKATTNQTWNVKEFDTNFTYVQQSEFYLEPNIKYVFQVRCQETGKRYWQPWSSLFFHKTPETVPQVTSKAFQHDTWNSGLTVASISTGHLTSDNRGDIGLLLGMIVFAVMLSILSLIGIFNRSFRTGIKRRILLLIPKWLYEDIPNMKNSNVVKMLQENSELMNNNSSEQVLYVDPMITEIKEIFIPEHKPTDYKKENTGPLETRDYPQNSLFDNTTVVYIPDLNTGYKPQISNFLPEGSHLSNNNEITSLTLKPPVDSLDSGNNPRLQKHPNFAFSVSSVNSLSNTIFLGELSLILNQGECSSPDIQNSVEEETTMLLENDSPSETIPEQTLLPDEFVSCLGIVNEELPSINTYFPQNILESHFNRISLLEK

Displacement of 75 nM P630-TMR (Mean) ([1]; [TEEEQQLY] -4.09691 logM): -0.7672 | Displacement of 75 nM P630-TMR (Mean) ([1]; [TEEEQQLY] -4.79588 logM): 3.824 | Displacement of 75 nM P630-TMR (Mean) ([1]; [TEEEQQLY] -5.49485 logM): 1.157 | Displacement of 75 nM P630-TMR (Mean) ([1]; [TEEEQQLY] -6.19382 logM): -2.412 | Displacement of 75 nM P630-TMR (Mean) ([1]; [TEEEQQLY] -6.89279 logM): -1.937 | Displacement of 75 nM P630-TMR (Mean) ([1]; [TEEEQQLY] -7.59176 logM): -4.432 | Displacement of 75 nM P630-TMR (Mean) ([1]; [TEEEQQLY] -8.29073 logM): -0.4835 | Displacement of 75 nM P630-TMR (Mean) ([1]; [TEEEQQLY] -8.9897 logM): -1.857 | Inhibition of IL23-TMR binding (Mean) ([2]; [TEEEQQLY] -4.56864 logM): 13.433 | Inhibition of IL23-TMR binding (Mean) ([2]; [TEEEQQLY] -5.04576 logM): 6.927 | Inhibition of IL23-TMR binding (Mean) ([2]; [TEEEQQLY] -5.52288 logM): 9.9603 | Inhibition of IL23-TMR binding (Mean) ([2]; [TEEEQQLY] -6 logM): 11.7979 | Inhibition of IL23-TMR binding (Mean) ([2]; [TEEEQQLY] -6.47712 logM): 6.708 | Inhibition of IL23-TMR binding (Mean) ([2]; [TEEEQQLY] -6.95424 logM): 2.6729 | Inhibition of IL23-TMR binding (Mean) ([2]; [TEEEQQLY] -7.43136 logM): 2.475 | Inhibition of IL23-TMR binding (Mean) ([2]; [TEEEQQLY] -7.90849 logM): 7.532
Sequence: TEEEQQLY [octapeptide reported to be a negative allosteric modulator (NAM) of the IL-23 receptor]
Displacement of P630-TMR ([1]; NL-IL23R and IL12Rβ1): did not displace P630-TMR; also recorded: Did not displace labelled probe | Displacement of IL23-TMR ([2]; NL-IL23R and IL12Rβ1): not to displace IL23-TMR; also recorded: Did not displace labelled probe
